Source: article PMC5575113 (2017)

Columns and labels:
GroEL = GroEL (E. coli, UniProt P0A6F5 1-548); test: MST
[1] = biological target: GroEL^SR (GroEL R452A/E461A/S463A/V464A) (E. coli, UniProt P0A6F5 1-548, R452A | E461A | S463A | V464A); test: MST

B1: GroES^7I25D_(1,4,7) (other)
chain: MNIRPLHDRVIVKRKEVETKSAGGDVLTGSAAAKSTRGEVLAVGNGRILENGEVKPLDVKVGDIVIFNDGYGVKSEKIDNEEVLIMSESDILAIVEAMNIRPLHDRVIVKRKEVETKSAGGIVLTGSAAAKSTRGEVLAVGNGRILENGEVKPLDVKVGDIVIFNDGYGVKSEKIDNEEVLIMSESDILAIVEAMNIRPLHDRVIVKRKEVETKSAGGIVLTGSAAAKSTRGEVLAVGNGRILENGEVKPLDVKVGDIVIFNDGYGVKSEKIDNEEVLIMSESDILAIVEAMNIRPLHDRVIVKRKEVETKSAGGDVLTGSAAAKSTRGEVLAVGNGRILENGEVKPLDVKVGDIVIFNDGYGVKSEKIDNEEVLIMSESDILAIVEAMNIRPLHDRVIVKRKEVETKSAGGIVLTGSAAAKSTRGEVLAVGNGRILENGEVKPLDVKVGDIVIFNDGYGVKSEKIDNEEVLIMSESDILAIVEAMNIRPLHDRVIVKRKEVETKSAGGIVLTGSAAAKSTRGEVLAVGNGRILENGEVKPLDVKVGDIVIFNDGYGVKSEKIDNEEVLIMSESDILAIVEAMNIRPLHDRVIVKRKEVETKSAGGDVLTGSAAAKSTRGEVLAVGNGRILENGEVKPLDVKVGDIVIFNDGYGVKSEKIDNEEVLIMSESDILAIVEA
modifications: DyLight 650 NHS ester on amines (for MST)
Kd (GroEL): 40 nM

B2: GroES^7I25D1,3 (other)
chain: MNIRPLHDRVIVKRKEVETKSAGGDVLTGSAAAKSTRGEVLAVGNGRILENGEVKPLDVKVGDIVIFNDGYGVKSEKIDNEEVLIMSESDILAIVEAMNIRPLHDRVIVKRKEVETKSAGGIVLTGSAAAKSTRGEVLAVGNGRILENGEVKPLDVKVGDIVIFNDGYGVKSEKIDNEEVLIMSESDILAIVEAMNIRPLHDRVIVKRKEVETKSAGGDVLTGSAAAKSTRGEVLAVGNGRILENGEVKPLDVKVGDIVIFNDGYGVKSEKIDNEEVLIMSESDILAIVEAMNIRPLHDRVIVKRKEVETKSAGGIVLTGSAAAKSTRGEVLAVGNGRILENGEVKPLDVKVGDIVIFNDGYGVKSEKIDNEEVLIMSESDILAIVEAMNIRPLHDRVIVKRKEVETKSAGGIVLTGSAAAKSTRGEVLAVGNGRILENGEVKPLDVKVGDIVIFNDGYGVKSEKIDNEEVLIMSESDILAIVEAMNIRPLHDRVIVKRKEVETKSAGGIVLTGSAAAKSTRGEVLAVGNGRILENGEVKPLDVKVGDIVIFNDGYGVKSEKIDNEEVLIMSESDILAIVEAMNIRPLHDRVIVKRKEVETKSAGGIVLTGSAAAKSTRGEVLAVGNGRILENGEVKPLDVKVGDIVIFNDGYGVKSEKIDNEEVLIMSESDILAIVEA
modifications: DyLight 650 NHS ester on amines (for MST)
Kd [1]: 71.9 nM | Kd (GroEL): 13.3 nM

B3: GroES^7I25A1,2 (other)
chain: MNIRPLHDRVIVKRKEVETKSAGGAVLTGSAAAKSTRGEVLAVGNGRILENGEVKPLDVKVGDIVIFNDGYGVKSEKIDNEEVLIMSESDILAIVEAMNIRPLHDRVIVKRKEVETKSAGGAVLTGSAAAKSTRGEVLAVGNGRILENGEVKPLDVKVGDIVIFNDGYGVKSEKIDNEEVLIMSESDILAIVEAMNIRPLHDRVIVKRKEVETKSAGGIVLTGSAAAKSTRGEVLAVGNGRILENGEVKPLDVKVGDIVIFNDGYGVKSEKIDNEEVLIMSESDILAIVEAMNIRPLHDRVIVKRKEVETKSAGGIVLTGSAAAKSTRGEVLAVGNGRILENGEVKPLDVKVGDIVIFNDGYGVKSEKIDNEEVLIMSESDILAIVEAMNIRPLHDRVIVKRKEVETKSAGGIVLTGSAAAKSTRGEVLAVGNGRILENGEVKPLDVKVGDIVIFNDGYGVKSEKIDNEEVLIMSESDILAIVEAMNIRPLHDRVIVKRKEVETKSAGGIVLTGSAAAKSTRGEVLAVGNGRILENGEVKPLDVKVGDIVIFNDGYGVKSEKIDNEEVLIMSESDILAIVEAMNIRPLHDRVIVKRKEVETKSAGGIVLTGSAAAKSTRGEVLAVGNGRILENGEVKPLDVKVGDIVIFNDGYGVKSEKIDNEEVLIMSESDILAIVEA
modifications: DyLight 650 NHS ester on amines (for MST)
Kd [1]: 35 nM | Kd (GroEL): 8.97 nM

B4: GroES^7I25A1,3 (other)
chain: MNIRPLHDRVIVKRKEVETKSAGGAVLTGSAAAKSTRGEVLAVGNGRILENGEVKPLDVKVGDIVIFNDGYGVKSEKIDNEEVLIMSESDILAIVEAMNIRPLHDRVIVKRKEVETKSAGGIVLTGSAAAKSTRGEVLAVGNGRILENGEVKPLDVKVGDIVIFNDGYGVKSEKIDNEEVLIMSESDILAIVEAMNIRPLHDRVIVKRKEVETKSAGGAVLTGSAAAKSTRGEVLAVGNGRILENGEVKPLDVKVGDIVIFNDGYGVKSEKIDNEEVLIMSESDILAIVEAMNIRPLHDRVIVKRKEVETKSAGGIVLTGSAAAKSTRGEVLAVGNGRILENGEVKPLDVKVGDIVIFNDGYGVKSEKIDNEEVLIMSESDILAIVEAMNIRPLHDRVIVKRKEVETKSAGGIVLTGSAAAKSTRGEVLAVGNGRILENGEVKPLDVKVGDIVIFNDGYGVKSEKIDNEEVLIMSESDILAIVEAMNIRPLHDRVIVKRKEVETKSAGGIVLTGSAAAKSTRGEVLAVGNGRILENGEVKPLDVKVGDIVIFNDGYGVKSEKIDNEEVLIMSESDILAIVEAMNIRPLHDRVIVKRKEVETKSAGGIVLTGSAAAKSTRGEVLAVGNGRILENGEVKPLDVKVGDIVIFNDGYGVKSEKIDNEEVLIMSESDILAIVEA
modifications: DyLight 650 NHS ester on amines (for MST)
Kd [1]: 39.7 nM | Kd (GroEL): 10 nM

B5: GroES^7I25D1,4 (other)
chain: MNIRPLHDRVIVKRKEVETKSAGGDVLTGSAAAKSTRGEVLAVGNGRILENGEVKPLDVKVGDIVIFNDGYGVKSEKIDNEEVLIMSESDILAIVEAMNIRPLHDRVIVKRKEVETKSAGGIVLTGSAAAKSTRGEVLAVGNGRILENGEVKPLDVKVGDIVIFNDGYGVKSEKIDNEEVLIMSESDILAIVEAMNIRPLHDRVIVKRKEVETKSAGGIVLTGSAAAKSTRGEVLAVGNGRILENGEVKPLDVKVGDIVIFNDGYGVKSEKIDNEEVLIMSESDILAIVEAMNIRPLHDRVIVKRKEVETKSAGGDVLTGSAAAKSTRGEVLAVGNGRILENGEVKPLDVKVGDIVIFNDGYGVKSEKIDNEEVLIMSESDILAIVEAMNIRPLHDRVIVKRKEVETKSAGGIVLTGSAAAKSTRGEVLAVGNGRILENGEVKPLDVKVGDIVIFNDGYGVKSEKIDNEEVLIMSESDILAIVEAMNIRPLHDRVIVKRKEVETKSAGGIVLTGSAAAKSTRGEVLAVGNGRILENGEVKPLDVKVGDIVIFNDGYGVKSEKIDNEEVLIMSESDILAIVEAMNIRPLHDRVIVKRKEVETKSAGGIVLTGSAAAKSTRGEVLAVGNGRILENGEVKPLDVKVGDIVIFNDGYGVKSEKIDNEEVLIMSESDILAIVEA
modifications: DyLight 650 NHS ester on amines (for MST)
Kd [1]: 73.1 nM | Kd (GroEL): 9.58 nM

B6: GroES^7I25A_(1,4,7) (other)
chain: MNIRPLHDRVIVKRKEVETKSAGGAVLTGSAAAKSTRGEVLAVGNGRILENGEVKPLDVKVGDIVIFNDGYGVKSEKIDNEEVLIMSESDILAIVEAMNIRPLHDRVIVKRKEVETKSAGGIVLTGSAAAKSTRGEVLAVGNGRILENGEVKPLDVKVGDIVIFNDGYGVKSEKIDNEEVLIMSESDILAIVEAMNIRPLHDRVIVKRKEVETKSAGGIVLTGSAAAKSTRGEVLAVGNGRILENGEVKPLDVKVGDIVIFNDGYGVKSEKIDNEEVLIMSESDILAIVEAMNIRPLHDRVIVKRKEVETKSAGGAVLTGSAAAKSTRGEVLAVGNGRILENGEVKPLDVKVGDIVIFNDGYGVKSEKIDNEEVLIMSESDILAIVEAMNIRPLHDRVIVKRKEVETKSAGGIVLTGSAAAKSTRGEVLAVGNGRILENGEVKPLDVKVGDIVIFNDGYGVKSEKIDNEEVLIMSESDILAIVEAMNIRPLHDRVIVKRKEVETKSAGGIVLTGSAAAKSTRGEVLAVGNGRILENGEVKPLDVKVGDIVIFNDGYGVKSEKIDNEEVLIMSESDILAIVEAMNIRPLHDRVIVKRKEVETKSAGGAVLTGSAAAKSTRGEVLAVGNGRILENGEVKPLDVKVGDIVIFNDGYGVKSEKIDNEEVLIMSESDILAIVEA
modifications: DyLight 650 NHS ester on amines (for MST)
Kd (GroEL): 77.2 nM

B7: GroES^7I25D1 (other)
chain: MNIRPLHDRVIVKRKEVETKSAGGDVLTGSAAAKSTRGEVLAVGNGRILENGEVKPLDVKVGDIVIFNDGYGVKSEKIDNEEVLIMSESDILAIVEAMNIRPLHDRVIVKRKEVETKSAGGIVLTGSAAAKSTRGEVLAVGNGRILENGEVKPLDVKVGDIVIFNDGYGVKSEKIDNEEVLIMSESDILAIVEAMNIRPLHDRVIVKRKEVETKSAGGIVLTGSAAAKSTRGEVLAVGNGRILENGEVKPLDVKVGDIVIFNDGYGVKSEKIDNEEVLIMSESDILAIVEAMNIRPLHDRVIVKRKEVETKSAGGIVLTGSAAAKSTRGEVLAVGNGRILENGEVKPLDVKVGDIVIFNDGYGVKSEKIDNEEVLIMSESDILAIVEAMNIRPLHDRVIVKRKEVETKSAGGIVLTGSAAAKSTRGEVLAVGNGRILENGEVKPLDVKVGDIVIFNDGYGVKSEKIDNEEVLIMSESDILAIVEAMNIRPLHDRVIVKRKEVETKSAGGIVLTGSAAAKSTRGEVLAVGNGRILENGEVKPLDVKVGDIVIFNDGYGVKSEKIDNEEVLIMSESDILAIVEAMNIRPLHDRVIVKRKEVETKSAGGIVLTGSAAAKSTRGEVLAVGNGRILENGEVKPLDVKVGDIVIFNDGYGVKSEKIDNEEVLIMSESDILAIVEA
modifications: DyLight 650 NHS ester on amines (for MST)
Kd [1]: 25.6 nM | Kd (GroEL): 4.07 nM

B8: GroES^7I25A1 (other)
chain: MNIRPLHDRVIVKRKEVETKSAGGAVLTGSAAAKSTRGEVLAVGNGRILENGEVKPLDVKVGDIVIFNDGYGVKSEKIDNEEVLIMSESDILAIVEAMNIRPLHDRVIVKRKEVETKSAGGIVLTGSAAAKSTRGEVLAVGNGRILENGEVKPLDVKVGDIVIFNDGYGVKSEKIDNEEVLIMSESDILAIVEAMNIRPLHDRVIVKRKEVETKSAGGIVLTGSAAAKSTRGEVLAVGNGRILENGEVKPLDVKVGDIVIFNDGYGVKSEKIDNEEVLIMSESDILAIVEAMNIRPLHDRVIVKRKEVETKSAGGIVLTGSAAAKSTRGEVLAVGNGRILENGEVKPLDVKVGDIVIFNDGYGVKSEKIDNEEVLIMSESDILAIVEAMNIRPLHDRVIVKRKEVETKSAGGIVLTGSAAAKSTRGEVLAVGNGRILENGEVKPLDVKVGDIVIFNDGYGVKSEKIDNEEVLIMSESDILAIVEAMNIRPLHDRVIVKRKEVETKSAGGIVLTGSAAAKSTRGEVLAVGNGRILENGEVKPLDVKVGDIVIFNDGYGVKSEKIDNEEVLIMSESDILAIVEAMNIRPLHDRVIVKRKEVETKSAGGIVLTGSAAAKSTRGEVLAVGNGRILENGEVKPLDVKVGDIVIFNDGYGVKSEKIDNEEVLIMSESDILAIVEA
modifications: DyLight 650 NHS ester on amines (for MST)
Kd (GroEL): 4.6 nM
